One block for each substance: values may come before it.
Tests used:
[1] = target: LFA-1 (CD11a/CD18) on cells (human) (UniProt P20701); experiment: neutrophil adhesion to immobilized ICAM-R/Ig, mAb 15 µg/ml
[2] = target: LFA-1 (CD11a/CD18) on cells (human) (UniProt P20701); experiment: JY cell adhesion to shICAM-R, mAb 10 µg/ml
ICAM-1/IgG chimera = ICAM-1/IgG chimera (UniProt P05362); experiment: adhesion of transfected CHO cells to immobilized chimera, with PMA
[3] = target: LFA-1 (CD11a/CD18) on cells (human) (UniProt P20701); experiment: SKW3 cell adhesion to plate-bound shICAM-R, peptide 1-2 mg/ml

Chain of LFA-1 (CD11a/CD18) on cells (human) (P20701 26-1170, chain 1 of 2): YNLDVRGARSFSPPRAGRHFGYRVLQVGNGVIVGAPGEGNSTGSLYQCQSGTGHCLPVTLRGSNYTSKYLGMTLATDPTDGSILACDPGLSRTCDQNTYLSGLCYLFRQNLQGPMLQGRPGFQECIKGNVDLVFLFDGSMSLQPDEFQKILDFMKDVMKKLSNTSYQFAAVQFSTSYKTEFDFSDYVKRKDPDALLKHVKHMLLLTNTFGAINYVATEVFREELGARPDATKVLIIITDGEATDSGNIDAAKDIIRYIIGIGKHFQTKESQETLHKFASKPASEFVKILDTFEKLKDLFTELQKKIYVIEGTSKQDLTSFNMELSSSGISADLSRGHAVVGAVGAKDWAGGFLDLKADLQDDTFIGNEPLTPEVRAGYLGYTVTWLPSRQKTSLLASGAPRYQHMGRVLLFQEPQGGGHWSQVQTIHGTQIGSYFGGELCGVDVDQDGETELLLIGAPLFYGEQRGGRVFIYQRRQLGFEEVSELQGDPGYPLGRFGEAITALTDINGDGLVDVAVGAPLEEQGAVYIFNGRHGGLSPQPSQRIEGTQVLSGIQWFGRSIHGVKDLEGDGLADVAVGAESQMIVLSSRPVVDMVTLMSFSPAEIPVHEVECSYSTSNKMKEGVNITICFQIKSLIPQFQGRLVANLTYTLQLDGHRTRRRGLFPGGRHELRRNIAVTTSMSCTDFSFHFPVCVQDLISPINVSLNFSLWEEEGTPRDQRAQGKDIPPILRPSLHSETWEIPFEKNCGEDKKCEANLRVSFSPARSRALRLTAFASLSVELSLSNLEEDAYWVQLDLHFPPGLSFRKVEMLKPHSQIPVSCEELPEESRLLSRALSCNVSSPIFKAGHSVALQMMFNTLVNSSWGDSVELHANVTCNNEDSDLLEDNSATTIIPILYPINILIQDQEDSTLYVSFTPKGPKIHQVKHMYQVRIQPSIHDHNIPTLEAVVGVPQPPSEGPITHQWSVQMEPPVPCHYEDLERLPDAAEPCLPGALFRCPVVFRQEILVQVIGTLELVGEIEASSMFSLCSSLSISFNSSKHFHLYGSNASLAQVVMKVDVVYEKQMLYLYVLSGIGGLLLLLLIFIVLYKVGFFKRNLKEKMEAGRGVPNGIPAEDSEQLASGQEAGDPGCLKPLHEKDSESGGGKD
Chain of LFA-1 (CD11a/CD18) on cells (human) (P05107 23-769, chain 2 of 2, further chain): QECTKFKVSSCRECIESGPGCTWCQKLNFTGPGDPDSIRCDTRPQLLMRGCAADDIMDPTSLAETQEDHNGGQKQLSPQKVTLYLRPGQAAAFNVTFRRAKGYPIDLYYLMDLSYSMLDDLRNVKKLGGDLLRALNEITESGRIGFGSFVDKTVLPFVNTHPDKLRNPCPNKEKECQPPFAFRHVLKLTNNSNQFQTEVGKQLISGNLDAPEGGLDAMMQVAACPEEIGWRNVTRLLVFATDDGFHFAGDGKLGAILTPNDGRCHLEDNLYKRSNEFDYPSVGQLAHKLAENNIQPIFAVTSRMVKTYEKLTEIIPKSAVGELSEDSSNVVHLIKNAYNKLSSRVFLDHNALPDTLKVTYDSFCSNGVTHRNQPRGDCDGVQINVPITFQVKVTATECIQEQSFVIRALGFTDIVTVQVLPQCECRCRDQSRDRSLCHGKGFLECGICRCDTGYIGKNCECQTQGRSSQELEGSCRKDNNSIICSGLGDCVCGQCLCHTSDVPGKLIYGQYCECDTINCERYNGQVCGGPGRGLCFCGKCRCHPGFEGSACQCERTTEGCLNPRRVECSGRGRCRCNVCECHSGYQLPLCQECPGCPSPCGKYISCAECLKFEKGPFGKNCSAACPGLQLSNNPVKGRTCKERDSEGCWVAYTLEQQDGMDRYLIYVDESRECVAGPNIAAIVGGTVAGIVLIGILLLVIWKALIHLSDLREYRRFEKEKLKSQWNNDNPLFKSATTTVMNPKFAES
Chain of LFA-1 (CD11a/CD18) on cells (P20701 26-1170): as the sequence (P20701 26-1170, chain 1 of 2) above
Chain of LFA-1 (CD11a/CD18) on cells (P05107 23-769): as the sequence (P05107 23-769, chain 2 of 2, further chain) above
Chain of ICAM-1/IgG chimera (P05362 28-480 limits assumed, change not shown): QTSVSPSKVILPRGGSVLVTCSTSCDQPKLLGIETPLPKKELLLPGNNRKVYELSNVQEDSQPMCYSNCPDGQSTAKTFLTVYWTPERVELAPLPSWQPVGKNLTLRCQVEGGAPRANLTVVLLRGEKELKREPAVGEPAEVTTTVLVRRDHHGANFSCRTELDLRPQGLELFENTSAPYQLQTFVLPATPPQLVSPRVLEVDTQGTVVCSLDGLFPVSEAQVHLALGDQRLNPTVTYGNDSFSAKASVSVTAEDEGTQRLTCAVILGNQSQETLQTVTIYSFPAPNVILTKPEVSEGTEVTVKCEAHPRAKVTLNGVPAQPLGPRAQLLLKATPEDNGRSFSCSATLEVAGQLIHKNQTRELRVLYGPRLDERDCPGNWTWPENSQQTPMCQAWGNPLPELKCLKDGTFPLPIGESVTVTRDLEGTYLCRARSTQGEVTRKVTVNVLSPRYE

% inhibition of neutrophil binding to ICAM-R [1]: 50%
Substance: anti-CD11a monoclonal antibody TS1/22

Inhibition (%) of CD18-dependent JY cell binding [2]: 100%
Substance: anti-CD18 monoclonal antibody 60.3

fold increase in binding (ICAM-1/IgG chimera): 2 to 3 fold
Substance: LFA-1 (CD11a/CD18) on cells (from UniProt P20701 26-1170; P05107 23-769) (receptor; other documents disagree on this pair)

% Inhibition of cell binding to shICAM-R [3]: 26%
Substance: ICAM-R domain 1 peptide NGSQI, residues 72-76

From US20040248211A1, “ICAM-related protein” (priority 1992, published 2004)
